Source: publication PMC4417512, “Role of N-linked glycosylation in the secretion and enzymatic properties of Rhizopus chinensis lipase expressed in Pichia pastoris” (Microbial Cell Factories, 2015)
Like-named read-outs stand apart in the source and are kept apart here.

Tests used:
[1] = test system: CCCCCCCCCCCCCCCC(=O)Oc1ccc([N+](=O)[O-])cc1; test: purified protein; assay type: biochemical, Rhizopus microsporus; conditions: pH 8.0, 40°C, emulsified substrate, Triton X-100 and gum arabic in the standard assay
[2] = test system: CCCCCCCCCCCCCCCC(=O)Oc1ccc([N+](=O)[O-])cc1; test: purified protein; conditions: pH 8.0, 40°C, emulsified substrate, Triton X-100 and gum arabic in the standard assay

For “Rhizopus chinensis lipase (RCL; proRCLCNQ): N48Q (proRCLCN48Q)”, the enzymatic_activity (N-glycosylation at N48) was “no change, kcat 60.70 vs 61.33 s-1; Km 0.20 vs 0.19 mM; kcat/Km 2.92*10^5 vs 3.11*10^5 M-1 s-1”, the expression_or_secretion (N-glycosylation at N48) was “no change” and the stability_or_folding (N-glycosylation at N48) was “no change, about 70% residual activity after 1 h at 50 °C for both”.

With “Rhizopus chinensis lipase (RCL; proRCLCNQ): N14Q (proRCLCN14Q), 90% (v/v) organic solvents, 24 h” the stability_or_folding (N-glycosylation at N14) was “decreases, relative activity e.g. isooctane 78 ± 3.5% to 70 ± 3.0%; DMSO 58 ± 4.0% to 51 ± 4.2%”.

With “Rhizopus chinensis lipase (RCL; proRCLCNQ): N60Q (proRCLCN60Q), mRNA level by RT-PCR” the other (N-glycosylation at N60) was “no change”.

With “proRCLCNQ (Rhizopus microsporus var. chinensis; K92N/N74Q/R93Q)” the Km [1] was 190 ± 20 µM, the kcat [1] was 61.3 ± 2.5 s⁻¹ and the kcat/Km [1] was 311000 ± 61000 M⁻¹ s⁻¹.

“proRCLCNQ (Rhizopus microsporus var. chinensis; K92N/N40Q/R93Q)” gave a Km ([1]; printed Km inconsistent with printed kcat/Km (tenfold), possible misprint) of 2010 ± 120 µM.

In the case of “Rhizopus chinensis lipase (RCL; proRCLCNQ): N60Q (proRCLCN60Q)”, the expression_or_secretion (N-glycosylation at N60) is reported as “abolishes”.

Work on “proRCLCNQ (Rhizopus microsporus var. chinensis; K92N/R93Q)” yielded a Km [1] of 200 ± 40 µM, a kcat [1] of 60.7 ± 2.2 s⁻¹ and a kcat/Km [1] of 292000 ± 55000 M⁻¹ s⁻¹.

In the case of “Rhizopus chinensis lipase (RCL; proRCLCNQ): N14Q (proRCLCN14Q)”, the enzymatic_activity (N-glycosylation at N14) is reported as “decreases, kcat 60.70 to 24.82 s-1; Km 0.20 to 2.01 mM; kcat/Km 2.92*10^5 to 1.22*10^5 M-1 s-1”, the expression_or_secretion (N-glycosylation at N14) is reported as “no change” and the stability_or_folding (N-glycosylation at N14) is reported as “decreases”. The structure_or_conformation (N-glycosylation at N14) was “no change”.

Work on “r27RCLC (Rhizopus microsporus var. chinensis)” yielded a Km [2] of 340 ± 100 µM, a kcat [2] of 122 ± 3.1 s⁻¹ and a kcat/Km [2] of 356000 ± 81000 M⁻¹ s⁻¹.
